# In patent US20160002331A1 (Pfizer, published 2016):
# Several values for one entry are separate records, joined by “and”; a condition that tells them apart may be missing. Identical values can stand only once. Like-named read-outs stand apart in the source and are kept apart here.
# B1: rat 351-mIgG1 (antibody, V domains shown)
# VH: EVQLVESGGGLVQPGRSLKVSCLASGFTFSHYGMNWIRQAPGKGLDWVASISRSGSYIRYVDTVKGRFTVSRDIAKNTLYLQMTSLRSEDTALYYCAREGQFGDYFEYWGQGVMVTVSS
# VL: DIMLTQSPATLSVTPGERISLSCRASQKISTNLHWYQQKPNESPRILIKYASQTISGIPSRFSGSGSGTDFTLHINTVEPEDFSVYYCQQTNSWPLTFGSGTKLEIK
# B2: parental rat 351 (antibody, V domains shown)
# VH: B1 VH
# VL: B1 VL
# notes: Rat monoclonal IgG from a hybridoma
# B3: humanized 351 VH1.0/VL1.4 (antibody, human IgG1, V domains shown)
# VH: EVQLVESGGGLVQPGGSLRLSCAASGFTFSHYGMNWVRQAPGKGLEWVASISRSGSYIRYVDTVKGRFTISRDNAKNSLYLQMNSLRAEDTAVYYCAREGQFGDYFEYWGQGTLVTVSS
# VL: DIQMTQSPSSLSASVGDRVTITCRASQKISTNLHWYQQKPGKAPKLLIKYASQTISGVPSRFSGSGSGTDFTLTISSLQPEDFATYYCQQTNSWPLTFGGGTKVEIK
# B4: humanized 438 VH1.1/VL1.8 (antibody, human IgG1, kappa, V domains shown)
# VH: EVQLVESGGGLVQPGGSLRLSCAASGFTFSSFAMAWVRQAPGKGLEWVASISYGGADTYYRDSVKGRFTISRDNAKNSLYLQMNSLRAEDTAVYYCAKDLPYYGYTPFVMDAWGQGTLVTVSS
# VL: DIQMTQSPSSLSASVGDRVTITCRASQRINTDLHWYQQKPGKAPKVLIKFASQTISGVPSRFSGSGSGTDFTLTISSLQPEDFATYYCQQSNSWPYTFGQGTKLEIKR
# notes: full chains (VH1.1)-hIgG1-3M and (VL1.8)-hkappa
# How the values were obtained:
# [1] = biological target: T1, full-length human Notch1 expressed on the cell surface (human, UniProt P46531 19-2555); assay: cell-based or functional assay
# [2] = biological target: T1, full-length human Notch1 expressed on …; assay: cell-based or functional assay; remark: listed apart in the source
# [3] = biological target: T2, full-length mouse Notch1 expressed on the cell surface of U-2 OS cells (mouse, UniProt Q01705 19-2531); assay: cell-based or functional assay
# [4] = biological target: T3, Notch1 receptor with L1575P mutation (HPB-ALL cells) (UniProt P46531 19-2555, limits assumed); assay: cell-based or functional assay
# [5] = biological target: Notch1 receptor with a 12 amino acid insertion at position 1595 (CCRF-CEM cells) (UniProt P46531 19-2555); assay: cell-based or functional assay
# [6] = biological target: T3, Notch1 receptor with L1575P mutation …; assay: cell-based or functional assay; remark: listed apart in the source
# [7] = biological target: T4, human Notch1 NRR_Avi_His recombinant protein (human, UniProt P46531 1434-1737); assay: SPR (Biacore T100), antibody captured by anti-human IgG-Fc, NRR_Avi_His as analyte, 1:1 Langmuir model
# T4 construct: Secreted from CHO-PACE cells; cleaved at S1 into an N-terminal ~26 kDa half (LNR-A, B, C, HD1) and a C-terminal ~12 kDa half (HD2 and tag) that stay associated non-covalently; written here as one chain; also called recombinant human Notch1 NRR; human Notch1 NRR immunogen
# T4 sequence: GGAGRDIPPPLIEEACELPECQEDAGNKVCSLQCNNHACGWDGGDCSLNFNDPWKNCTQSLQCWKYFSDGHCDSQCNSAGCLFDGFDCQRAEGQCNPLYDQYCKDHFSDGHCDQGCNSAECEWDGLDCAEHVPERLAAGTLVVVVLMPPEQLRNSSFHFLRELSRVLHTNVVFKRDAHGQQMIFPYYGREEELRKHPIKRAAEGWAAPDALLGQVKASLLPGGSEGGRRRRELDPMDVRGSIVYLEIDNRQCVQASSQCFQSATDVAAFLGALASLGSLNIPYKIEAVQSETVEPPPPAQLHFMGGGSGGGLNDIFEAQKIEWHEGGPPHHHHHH
# Procedure: (§1) The kinetic constants of the anti-Notch1 NRR interactions were determined by surface plasmon resonance (Biacore® T100, Biacore Inc., Piscataway, N.J.). Flow cells of a CM5 chip were immobilized with approximately 10,000 Resonance Unit (RU) of anti-human IgG-Fc (Biacore®) in 10 mM Glycine, pH 5.0 at 10 μl/min for 600 seconds. […] Association of four concentrations of human Notch1 NRR_Avi_His recombinant protein (from 3.7-100 nM) and a zero concentration (running buffer) at 100 μl/min were recorded for 3 minutes in TBS with 1 mM CaCl₂. Dissociation of the complexes was measured for 10 minutes. The surface of the chip was regenerated by injecting 3M MgCl₂ with 3 mM EGTA for 60 seconds at 10 μl/min. Curves obtained after subtraction of the reference and buffer signals were fitted to a 1:1 Langmuir binding model with Biacore® T100 Evaluation Software (Biacore®).
# [8] = biological target: T1, full-length human Notch1 expressed on …; assay: cell-based or functional assay; remark: listed apart in the source
# [9] = biological target: T1, full-length human Notch1 expressed on …; assay: cell-based ELISA, U-2 OS cells expressing full-length human Notch1
# Procedure: (§2) Supernatants from clones displaying positive binding to immunogens in recombinant Notch1 NRR based ELISAs described above were then screened for cell surface Notch1 binding in a cell-based ELISA. U-2 OS cells stably overexpressing human or mouse full length Notch1 protein on cell surface were plated at 50,000 cells/well in 96 well plates (white opaque, BD/VWR) the day before ELISA assay. On the day of the ELISA, culture media were removed from wells and serially diluted (1:3 in blocking buffer) antibody solutions or hybridoma culture supernatants were applied to the plate. Plates were incubated at room temperature for 2 hours before being washed with PBS-Mg/Ca. HRP-conjugated secondary antibody was then applied and incubated with cells for 1 hour as described above for recombinant protein ELISA. Plates were washed with PBS-Mg/Ca before being developed with Pico-Chemiluminescent developing kit (Thermal Scientific), and chemiluminescence measurements were performed per manufacturer's instructions. Data plotting and analyses were performed with Microsoft Excel and Graphpad-Prizm software.
# [10] = biological target: T1, full-length human Notch1 expressed on …; assay: competition ELISA on U-2 OS cells expressing full-length human Notch1; competitor 0.8 nM biotinylated rat 351
# Procedure: (§3) In a similar manner as described for recombinant protein or cell based ELISAs, 96 well cell culture plates were either coated with Notch1 NRR-Avi_His protein (hi-bound co-Star plates), or seeded with full length Notch1 expressing U-2 OS cells (cell culture plate, Co-star), respectively.
# (§4) After incubation for 2 hours, the plates were washed, as described above, and HRP-conjugated streptavidin (Southern Biotech) diluted 1:5000 in blocking buffer was applied. Incubation with streptavidin was allowed for 30 min before the plates were washed again and developed with TMB solution for 10 minutes. Developing reaction was stopped by adding 0.18M H₂SO₄ and absorbance at 450 nm was measured. Data plotting and analyses were performed with Microsoft Excel and Graphpad-Prizm software.
# [11] = biological target: T4, human Notch1 NRR_Avi_His recombinant …; assay: SPR (Biacore T100), ratio of KD to that of rat 351
# [12] = biological target: T1, full-length human Notch1 expressed on …; assay: cell-based or functional assay; remark: listed apart in the source
# [13] = biological target: T2, full-length mouse Notch1 expressed on …; assay: cell-based or functional assay; remark: listed apart in the source
# [14] = biological target: T2, full-length mouse Notch1 expressed on …; assay: cell-based ELISA, U-2 OS cells expressing full-length mouse Notch1
# Procedure: as §2
# [15] = biological target: T1, full-length human Notch1 expressed on …; assay: cell-based or functional assay; remark: listed apart in the source
# [16] = biological target: T4, human Notch1 NRR_Avi_His recombinant …; assay: competition ELISA on coated human Notch1 NRR_Avi_His; competitor 0.8 nM biotinylated rat 438
# Procedure: as §3, §4
# [17] = biological target: T4, human Notch1 NRR_Avi_His recombinant …; assay: SPR (Biacore T100), ratio of KD to that of rat 438-hIgG1
# Procedure: as §1
# [18] = biological target: T1, full-length human Notch1 expressed on …; assay: competition ELISA on U-2 OS cells expressing full-length human Notch1; competitor 0.8 nM biotinylated rat 438
# Procedure: as §3, §4
# [19] = biological target: T1, full-length human Notch1 expressed on …; assay: cell-based or functional assay; remark: listed apart in the source
# [20] = biological target: T2, full-length mouse Notch1 expressed on …; assay: cell-based or functional assay; remark: listed apart in the source
# T2 sequence (Q01705 19-2531): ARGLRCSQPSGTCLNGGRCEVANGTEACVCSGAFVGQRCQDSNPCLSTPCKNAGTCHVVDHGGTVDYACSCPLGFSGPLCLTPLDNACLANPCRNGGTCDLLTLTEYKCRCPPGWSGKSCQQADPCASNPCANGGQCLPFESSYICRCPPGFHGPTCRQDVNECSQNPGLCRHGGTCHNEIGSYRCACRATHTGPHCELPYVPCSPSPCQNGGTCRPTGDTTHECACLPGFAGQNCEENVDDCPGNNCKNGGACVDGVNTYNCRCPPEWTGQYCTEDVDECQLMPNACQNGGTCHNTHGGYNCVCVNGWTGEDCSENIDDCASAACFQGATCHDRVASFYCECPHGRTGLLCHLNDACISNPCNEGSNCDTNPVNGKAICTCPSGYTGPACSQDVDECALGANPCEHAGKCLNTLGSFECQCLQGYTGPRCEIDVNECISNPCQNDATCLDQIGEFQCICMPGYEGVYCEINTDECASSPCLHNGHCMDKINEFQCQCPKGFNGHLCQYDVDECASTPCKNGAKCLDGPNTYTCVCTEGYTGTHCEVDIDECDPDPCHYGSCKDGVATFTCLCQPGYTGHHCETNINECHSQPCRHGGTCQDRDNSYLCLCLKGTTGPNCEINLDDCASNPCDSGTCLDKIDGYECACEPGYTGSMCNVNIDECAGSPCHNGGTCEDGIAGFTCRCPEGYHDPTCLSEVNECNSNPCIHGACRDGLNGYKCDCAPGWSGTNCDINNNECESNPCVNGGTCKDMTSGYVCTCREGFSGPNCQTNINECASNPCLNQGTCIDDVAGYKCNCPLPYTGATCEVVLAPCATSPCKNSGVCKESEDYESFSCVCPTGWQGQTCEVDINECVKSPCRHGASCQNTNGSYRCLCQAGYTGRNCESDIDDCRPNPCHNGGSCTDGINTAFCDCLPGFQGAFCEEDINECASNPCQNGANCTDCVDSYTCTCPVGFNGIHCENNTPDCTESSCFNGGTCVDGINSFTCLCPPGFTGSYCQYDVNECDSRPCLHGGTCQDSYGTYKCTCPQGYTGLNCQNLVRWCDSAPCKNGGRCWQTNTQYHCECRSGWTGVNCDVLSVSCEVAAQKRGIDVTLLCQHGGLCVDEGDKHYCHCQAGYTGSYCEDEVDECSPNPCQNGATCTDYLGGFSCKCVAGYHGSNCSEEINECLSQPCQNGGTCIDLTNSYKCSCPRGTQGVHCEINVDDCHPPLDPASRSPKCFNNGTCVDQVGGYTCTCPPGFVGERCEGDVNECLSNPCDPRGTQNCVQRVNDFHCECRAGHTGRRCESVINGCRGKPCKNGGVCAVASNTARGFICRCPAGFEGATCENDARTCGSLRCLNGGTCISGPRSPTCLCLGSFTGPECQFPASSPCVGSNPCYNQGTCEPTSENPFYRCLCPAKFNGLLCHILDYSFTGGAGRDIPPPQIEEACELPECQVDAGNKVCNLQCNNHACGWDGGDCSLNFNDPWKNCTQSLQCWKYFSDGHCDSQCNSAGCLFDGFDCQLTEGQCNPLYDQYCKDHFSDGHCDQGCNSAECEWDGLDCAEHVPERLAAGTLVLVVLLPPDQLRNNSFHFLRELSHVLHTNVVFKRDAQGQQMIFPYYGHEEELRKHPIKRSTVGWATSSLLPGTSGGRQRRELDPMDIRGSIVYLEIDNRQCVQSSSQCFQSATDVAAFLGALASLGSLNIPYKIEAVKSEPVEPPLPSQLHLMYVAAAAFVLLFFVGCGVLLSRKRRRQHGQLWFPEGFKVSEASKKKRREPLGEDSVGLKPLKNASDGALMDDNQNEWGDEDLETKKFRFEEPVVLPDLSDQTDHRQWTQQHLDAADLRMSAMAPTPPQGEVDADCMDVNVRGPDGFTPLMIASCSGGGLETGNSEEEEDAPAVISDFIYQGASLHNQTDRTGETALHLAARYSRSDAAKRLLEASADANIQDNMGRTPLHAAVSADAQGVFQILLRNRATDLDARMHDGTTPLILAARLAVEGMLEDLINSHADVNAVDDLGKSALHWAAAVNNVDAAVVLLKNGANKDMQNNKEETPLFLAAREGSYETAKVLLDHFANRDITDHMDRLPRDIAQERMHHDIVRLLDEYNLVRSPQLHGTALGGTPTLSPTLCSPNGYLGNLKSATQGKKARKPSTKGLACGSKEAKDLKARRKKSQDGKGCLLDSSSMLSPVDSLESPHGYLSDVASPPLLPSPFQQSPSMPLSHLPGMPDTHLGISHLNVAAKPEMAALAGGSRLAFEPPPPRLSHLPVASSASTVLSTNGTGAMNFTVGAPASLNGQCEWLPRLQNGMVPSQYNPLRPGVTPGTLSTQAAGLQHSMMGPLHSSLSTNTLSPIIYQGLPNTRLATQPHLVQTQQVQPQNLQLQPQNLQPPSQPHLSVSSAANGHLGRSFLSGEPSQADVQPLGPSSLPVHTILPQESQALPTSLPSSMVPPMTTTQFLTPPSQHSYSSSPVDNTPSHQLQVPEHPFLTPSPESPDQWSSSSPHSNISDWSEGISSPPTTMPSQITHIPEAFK
# T3 sequence (P46531 19-2555 L1593P limits assumed): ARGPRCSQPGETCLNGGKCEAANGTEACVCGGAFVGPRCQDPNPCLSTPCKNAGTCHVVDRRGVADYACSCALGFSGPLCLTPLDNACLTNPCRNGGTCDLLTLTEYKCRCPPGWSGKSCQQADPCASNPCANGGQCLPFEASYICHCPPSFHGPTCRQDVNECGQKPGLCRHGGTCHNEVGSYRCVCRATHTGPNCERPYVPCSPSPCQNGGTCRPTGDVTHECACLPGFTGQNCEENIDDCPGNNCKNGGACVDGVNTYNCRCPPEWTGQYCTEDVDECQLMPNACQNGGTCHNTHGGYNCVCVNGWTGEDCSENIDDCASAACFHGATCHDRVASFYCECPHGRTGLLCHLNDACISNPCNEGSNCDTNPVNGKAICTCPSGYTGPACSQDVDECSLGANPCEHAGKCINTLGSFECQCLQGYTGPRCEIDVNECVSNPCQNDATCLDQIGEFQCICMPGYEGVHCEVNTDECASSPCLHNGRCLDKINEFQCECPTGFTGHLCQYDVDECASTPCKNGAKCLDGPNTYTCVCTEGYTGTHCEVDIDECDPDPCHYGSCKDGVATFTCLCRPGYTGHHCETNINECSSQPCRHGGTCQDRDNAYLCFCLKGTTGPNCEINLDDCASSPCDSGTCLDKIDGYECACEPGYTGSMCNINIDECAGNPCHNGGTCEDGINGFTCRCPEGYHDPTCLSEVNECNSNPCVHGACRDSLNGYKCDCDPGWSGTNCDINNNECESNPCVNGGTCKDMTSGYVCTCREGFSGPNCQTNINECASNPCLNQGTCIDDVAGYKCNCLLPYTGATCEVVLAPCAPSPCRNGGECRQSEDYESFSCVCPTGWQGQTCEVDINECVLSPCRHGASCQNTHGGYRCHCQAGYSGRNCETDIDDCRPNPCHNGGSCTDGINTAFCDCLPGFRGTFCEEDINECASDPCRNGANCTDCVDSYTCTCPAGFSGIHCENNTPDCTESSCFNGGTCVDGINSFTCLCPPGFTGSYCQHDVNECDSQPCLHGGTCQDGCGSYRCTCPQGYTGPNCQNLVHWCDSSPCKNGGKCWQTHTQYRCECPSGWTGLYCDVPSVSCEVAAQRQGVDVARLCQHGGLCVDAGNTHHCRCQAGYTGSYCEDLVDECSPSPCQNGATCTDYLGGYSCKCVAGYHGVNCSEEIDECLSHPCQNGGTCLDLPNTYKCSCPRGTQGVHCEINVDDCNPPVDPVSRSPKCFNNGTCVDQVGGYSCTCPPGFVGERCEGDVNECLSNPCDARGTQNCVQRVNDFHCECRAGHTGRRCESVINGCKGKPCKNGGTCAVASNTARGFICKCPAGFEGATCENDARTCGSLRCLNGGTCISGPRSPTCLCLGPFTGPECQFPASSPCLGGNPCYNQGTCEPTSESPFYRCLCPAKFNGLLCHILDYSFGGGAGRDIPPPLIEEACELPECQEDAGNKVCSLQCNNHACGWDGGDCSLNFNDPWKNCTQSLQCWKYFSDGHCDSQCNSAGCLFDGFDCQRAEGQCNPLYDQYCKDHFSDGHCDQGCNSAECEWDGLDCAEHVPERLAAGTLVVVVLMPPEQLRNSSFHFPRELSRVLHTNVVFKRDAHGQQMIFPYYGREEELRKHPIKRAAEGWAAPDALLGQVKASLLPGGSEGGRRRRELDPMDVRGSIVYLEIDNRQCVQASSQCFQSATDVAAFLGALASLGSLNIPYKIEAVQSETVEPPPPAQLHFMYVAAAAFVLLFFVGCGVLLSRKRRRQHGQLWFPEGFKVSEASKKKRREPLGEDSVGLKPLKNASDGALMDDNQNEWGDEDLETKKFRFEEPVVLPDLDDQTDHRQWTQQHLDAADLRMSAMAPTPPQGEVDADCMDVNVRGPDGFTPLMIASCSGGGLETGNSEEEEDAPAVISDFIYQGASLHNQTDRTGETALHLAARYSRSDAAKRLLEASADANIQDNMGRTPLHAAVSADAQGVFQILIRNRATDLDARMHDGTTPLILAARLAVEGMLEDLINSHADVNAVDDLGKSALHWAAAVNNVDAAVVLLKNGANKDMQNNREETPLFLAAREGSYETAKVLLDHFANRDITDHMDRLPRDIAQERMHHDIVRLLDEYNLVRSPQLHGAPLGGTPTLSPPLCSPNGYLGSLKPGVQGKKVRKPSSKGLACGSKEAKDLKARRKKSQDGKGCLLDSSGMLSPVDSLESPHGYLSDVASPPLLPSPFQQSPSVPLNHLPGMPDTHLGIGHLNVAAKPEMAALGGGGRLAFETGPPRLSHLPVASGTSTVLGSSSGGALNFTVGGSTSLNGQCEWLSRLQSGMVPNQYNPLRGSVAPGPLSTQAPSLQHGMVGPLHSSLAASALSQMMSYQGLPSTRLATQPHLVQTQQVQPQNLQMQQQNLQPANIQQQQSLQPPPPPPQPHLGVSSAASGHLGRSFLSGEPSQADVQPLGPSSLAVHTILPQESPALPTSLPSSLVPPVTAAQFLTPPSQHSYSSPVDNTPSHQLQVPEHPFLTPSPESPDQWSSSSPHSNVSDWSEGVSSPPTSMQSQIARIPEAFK
# T1 sequence (P46531 19-2555): as the sequence (P46531 19-2555 L1593P limits assumed) above, with P1575L counted along it
binder,measurement,setting,value
B1,"Firefly/Renilla Luminescence, human Notch1 reporter cells + 5 mM EDTA, 0.01 µg/mL antibody",[1],304 Firefly/Renilla ratio
same,"Firefly/Renilla Luminescence, human Notch1 reporter cells + 5 mM EDTA, 0.1 µg/mL antibody",[1],202 Firefly/Renilla ratio
same,"Firefly/Renilla Luminescence, human Notch1 reporter cells + 5 mM EDTA, 1 µg/mL antibody",[1],84.8 Firefly/Renilla ratio
same,"Firefly/Renilla Luminescence, human Notch1 reporter cells + 5 mM EDTA, 10 µg/mL antibody",[1],62.1 Firefly/Renilla ratio
same,"Firefly/Renilla Luminescence, human Notch1 reporter cells + 5 mM EDTA, 30 µg/mL antibody",[1],57 Firefly/Renilla ratio
same,"Neutralization activity (Human RGA), IC50",[2],0.22 nM
same,"Neutralization activity (murine RGA), IC50",[3],0.42 nM
same,"Normalized Notch1^ICD level, HPB-ALL cells, 0.001 µg/ml antibody",[4],0.833 relative to untreated
same,"Normalized Notch1^ICD level, HPB-ALL cells, 0.01 µg/ml antibody",[4],0.886 relative to untreated
same,"Normalized Notch1^ICD level, HPB-ALL cells, 0.1 µg/ml antibody",[4],0.156 relative to untreated
same,"Normalized Notch1^ICD level, HPB-ALL cells, 1 µg/ml antibody",[4],0.075 relative to untreated
same,"Normalized Notch1^ICD level, HPB-ALL cells, 10 µg/ml antibody",[4],0.02 relative to untreated
same,"Normalized Notch1^ICD level, CCRF-CEM cells, 0.001 µg/ml antibody",[5],0.982 relative to untreated
same,"Normalized Notch1^ICD level, CCRF-CEM cells, 0.01 µg/ml antibody",[5],1.04 relative to untreated
same,"Normalized Notch1^ICD level, CCRF-CEM cells, 0.1 µg/ml antibody",[5],0.413 relative to untreated
same,"Normalized Notch1^ICD level, CCRF-CEM cells, 1 µg/ml antibody",[5],0.043 relative to untreated
same,"Normalized Notch1^ICD level, CCRF-CEM cells, 10 µg/ml antibody",[5],0.034 relative to untreated
same,"IC50, MTS viability assay of HPB-ALL leukemia cells",[6],1.27 nM
B2,Kd,[7],2.33 nM and 2.3 nM
same,koff,[7],0.00102 s⁻¹
same,kon,[7],439000 M⁻¹ s⁻¹
same,"IC50, Notch1 signaling inhibition co-culture reporter assay",[8],0.19 nM
same,"Maximal Inhibition (%), Notch1 signaling inhibition co-culture reporter assay",[8],87.5%
same,EC50,[9],0.1 nM
same,EC50,[10],4.43 nM
same,Fold difference from rat 351,[11],1 fold
same,"Neutralization activity (Human RGA), IC50",[12],0.4 nM
same,"Neutralization activity (murine RGA), IC50",[13],0.3 nM
same,EC50,[14],0.07 nM
same,"Normalized Notch1^ICD level, CCD1076SK fibroblasts on DLL4, 0.001 µg/ml antibody",[15],0.826 relative to untreated
same,"Normalized Notch1^ICD level, CCD1076SK fibroblasts on DLL4, 0.01 µg/ml antibody",[15],0.848 relative to untreated
same,"Normalized Notch1^ICD level, CCD1076SK fibroblasts on DLL4, 0.1 µg/ml antibody",[15],0.554 relative to untreated
same,"Normalized Notch1^ICD level, CCD1076SK fibroblasts on DLL4, 1 µg/ml antibody",[15],0.393 relative to untreated
same,"Normalized Notch1^ICD level, CCD1076SK fibroblasts on DLL4, 10 µg/ml antibody",[15],0.302 relative to untreated
B3,Kd,[7],4.88 nM and 4.9 nM
same,koff,[7],0.00223 s⁻¹
same,kon,[7],458000 M⁻¹ s⁻¹
same,"Neutralization activity (Human RGA), IC50",[2],0.17 nM
same,"Neutralization activity (murine RGA), IC50",[3],0.49 nM
same,EC50,[9],0.1 nM
same,EC50,[10],2.11 nM
same,Fold difference from rat 351,[11],2.1 fold
same,EC50,[14],0.07 nM
B4,EC50,[16],1.2 nM
same,Kd,[7],2.1 nM
same,koff,[7],0.000449 s⁻¹
same,kon,[7],214000 M⁻¹ s⁻¹
same,EC50,[9],0.203 nM
same,"IC50, MTS viability assay of HPB-ALL leukemia cells",[6],2.26 nM
same,EC50,[14],0.149 nM
same,Fold difference from rat 438,[17],0.48 fold
same,EC50,[18],3.2 nM
same,"IC50, human Notch1 reporter gene co-culture assay (DLL4-HEK293)",[19],0.17 nM
same,"IC50, mouse Notch1 reporter gene co-culture assay (DLL4-HEK293)",[20],0.46 nM
